Test results reported in patent US20230034768A1 (BIOSION, published 2023).
Substitutions are numbered along the chain they refer to.

T1: Recombinant human RANKL-his protein (R&D, Cat #6449-TEC-010) (human, UniProt O14788 140-317, limits assumed)
T1 sequence (looked up): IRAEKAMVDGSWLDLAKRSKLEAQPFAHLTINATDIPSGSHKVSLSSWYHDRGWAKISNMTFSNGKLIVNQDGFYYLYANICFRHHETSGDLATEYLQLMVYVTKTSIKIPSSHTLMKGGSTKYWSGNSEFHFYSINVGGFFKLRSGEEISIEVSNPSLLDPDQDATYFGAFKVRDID

T2: human RANKL-his protein (prepared in-house with SEQ ID NO: 43) (human, UniProt O14788 136-317)
T2 construct: also called recombinant human RANKL-his
T2 chain: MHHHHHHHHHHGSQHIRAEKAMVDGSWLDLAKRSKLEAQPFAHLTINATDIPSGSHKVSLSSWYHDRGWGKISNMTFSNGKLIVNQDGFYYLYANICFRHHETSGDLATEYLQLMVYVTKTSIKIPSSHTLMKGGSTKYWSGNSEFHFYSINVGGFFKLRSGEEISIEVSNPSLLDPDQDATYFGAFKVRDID

T3: cynomolgus monkey RANKL-his protein (prepared in-house with SEQ ID NO.:42) (cynomolgus monkey, UniProt O14788 136-317 (human entry), limits assumed)
T3 construct: also called Cynomolgus RANKL
T3 chain: T2 chain with S53T, G70A, I167V

B1: humanized antibody huD1A1-V2 (antibody, human IgG4 S228P, kappa, V domains shown)
VH: EVQLVESGGGLVKPGGSLRLSCAASGFTFRNYAMSWVRQAPGKGLEWVSGISSGGTYTYYPDTVKGRFTISRDNAKNSLYLQMNSLRAEDTAVYYCARRDYGDVYEWYFDVWGKGTTVTVSS
VL: DIQMTQSPSSLSASVGDRVTITCKASQDVRTSIAWYQQKPGKAPKLLIYSASYRYTGVPSRFSGSGSGTDFTFTISSLQPEDIATYYCQQHYSSPWTFGGGTKVEIKR
notes: Human IgG4 / kappa
B2: humanized antibody huD1A1-V5 (antibody, human IgG4 S228P, kappa, V domains shown)
VH: B1 VH
VL: B1 VL with A43S, I83L
notes: Human IgG4 / kappa
B3: Chimeric B1A8 (antibody, human IgG2, kappa, V domains shown)
VH: EVQLVESGGDLVKPGGSLKLSCAASGFTFSRYGMSWVRQTPDKRLEWVASISSGGTYTSYPDSVQGRFTITRDSAKNTLYLQMSSLKSEDTAMYYCARRNFITSATDCYFDVWGAGTTVTVSS
VL: DTVLTQSPATLSVTPGASVSLSCRASQSISNNLHWYQQKSHESPRLLIIYASQSISGIPSRFSGSGSGTDFTLSINSVETEDFGVYFCQQSNSWPFTFGGGTKLEIKR
notes: Mouse variable regions on human IgG2 / kappa; also called chimeric antibody B1A8
B4: Chimeric B3D8 (antibody, human IgG2, kappa, V domains shown)
VH: B3 VH with P14S, Q65K
VL: B3 VL
notes: Mouse variable regions on human IgG2 / kappa; also called chimeric antibody B3D8
B5: Chimeric D1E3 (antibody, human IgG2, kappa, V domains shown)
VH: EVQLVESGGGLVKPGGSLKLSCAASGFTFSRYAMSWVRQTPEKRLEWVAGISSGGTYTYYPDTVKGRFTISRDSAKNILYLQMGSLRSEDSAMYHCARRDYGDVYEWYFDVWGTGTTVTVSS
VL: DIVMTQSHKFMSASVGDRVSITCKASQGVRIAVAWYQQKPGQSPKLLIYSASYRYTGVPDRFTGSGSGTDFTFTISSVQAEDLAVYYCQQHHSSPWTFGGGTKLEIKR
notes: Mouse variable regions on human IgG2 / kappa; also called chimeric antibody D1E3
B6: humanized antibody huD1A1-V3 (antibody, human IgG4 S228P, kappa, V domains shown)
VH: B1 VH with S49A
VL: B1 VL
notes: Human IgG4 / kappa
B7: humanized antibody huD1A1-V6 (antibody, human IgG4 S228P, kappa, V domains shown)
VH: B1 VH with S49A
VL: B1 VL with A43S, I83L
notes: Human IgG4 / kappa
B8: humanized antibody huD1A1-V4 (antibody, human IgG4 S228P, kappa, V domains shown)
VH: B1 VH with S49A, K76R, K114T
VL: B1 VL with A43S, I83L
notes: Human IgG4 / kappa
B9: humanized antibody huD1A1-V1 (antibody, human IgG4 S228P, kappa, V domains shown)
VH: B1 VH with S49A, K76R, K114T
VL: B1 VL
notes: Human IgG4 / kappa

biological target: T1, Recombinant human RANKL-his protein …; experiment: cell-based or functional assay

Row | IC50, RANKL-induced osteoclast differentiation of RAW264.7 cells (pNPP, OD405) [nM] | Binder
1 | ~1.42 | B1
2 | ~1.42 | B2

biological target: T1, Recombinant human RANKL-his protein …; experiment: cell-based or functional assay; remark: another data set of the same source

Row | IC50, RANKL-induced osteoclast differentiation of RAW264.7 cells (pNPP, OD405) [nM] | Binder
3 | ~1.45 | B1
4 | 1.51 | B2

Biological target: T2, human RANKL-his protein (prepared …)
Experiment: Octet BLI, antibody captured, human RANKL-his in solution
Experimental: (§1) Briefly, AHC/AMC biosensors (anti-human/anti-mouse IgG Fc capture, ForteBio) were presoaked with 10 mM glycine (pH 1.5) for 3 seconds, and then dipped in a well with running buffer (0.5% w/v BSA in PBST) for 3 seconds, the soaking and dipping steps were repeated for three times. […] A new baseline was run for 180 seconds in another well with HBS-EP⁺. […] Finally, sensors were presoaked with 10 mM glycine (pH 1.5) for 3 seconds, and then dipped in a well with running buffer for 3 seconds, the soaking and dipping steps repeated for three times. The association and dissociation curves were fit to a 1:1 Langmuir binding model using Octet evaluation software.
(§2) Cell supernatants were harvested after six days in shaking flasks, spun down to pellet cells, and then chimeric antibodies were purified from cell supernatants as described above. The purified antibodies were tested in the capture ELISA, competitive ELISA assay and Octet affinity test following the protocols in the foregoing Examples.

Row | Kd [nM] | Binder
5 | 1.62 | B3
6 | 2.65 | B4
7 | 0.612 | B5

Biological target: T2, human RANKL-his protein (prepared …)
Experiment: Octet BLI, antibody from cell supernatant captured, human RANKL-his in solution
Experimental: as §1
The chimeric antibody when tested was in HBS-EP⁺ at 5 μg/ml concentration.

Row | Kd [nM] | koff [s⁻¹] | kon [M⁻¹ s⁻¹] | Binder
8 | < 0.001 | < 1e-07 | 112000 | B1
9 | < 0.001 | < 1e-07 | 106000 | B6
10 | < 0.001 | < 1e-07 | 120000 | B2
11 | < 0.001 | < 1e-07 | 115000 | B7
12 | < 0.001 | < 1e-07 | 101000 | B8
13 | < 0.001 | < 1e-07 | 124000 | B9

biological target: T4, biotin-labeled human RANKL-Fc protein (prepared in house, SEQ ID NO.: 40) (human, biotin-labeled (sites not given)); experiment: capture ELISA: captured antibody, biotin-labeled human RANKL-Fc, OD(450-630)
T4 construct: also called RANKL-Fc-biotin
Experimental: (§3) Plates were washed once with wash buffer (PBS+0.05% v/v Tween-20, PBST) and then blocked with 200 μl/well blocking buffer (5% w/v non-fatty milk in PBST) for 2 hours at 37° C. […] After a final wash, plates were incubated with 100 μl/well ELISA substrate TMB (Innoreagents, Cat #TMB-S-002) at room temperature. The reaction was stopped in 3-10 minutes with 50 μl/well 1M H₂SO₄, and the absorbance of each well was read on a microplate reader using dual wavelengths mode with 450 nm for TMB and 630 nm as the reference wavelength. The OD (450-630) values were plotted against antibody concentration. Data were analyzed using Graphpad Prism software and EC₅₀ values were reported.
For the capture ELISA, 96-well micro plates were coated with 2 μg/ml goat anti-human IgG (AffiniPure Goat Anti-Human IgG, F(ab′)₂ fragment specific, Jackson Immunoresearch, Cat #109-005-097) instead of AffiniPure Goat Anti-Mouse IgG, Fcγ fragment specific, 100 μl/well.

Row | EC50 [nM] | Binder
14 | 0.2 | B1
15 | 0.182 | B2

biological target: T4, biotin-labeled human RANKL-Fc protein …; experiment: as above; remark: another data set of the same source
Experimental: as §3, §2

Row | EC50 [nM] | Binder
16 | 2 | B3
17 | 3.17 | B4
18 | 0.183 | B5

Biological target: T2, human RANKL-his protein (prepared …)
Experiment: Biacore T200 SPR, antibody captured by anti-human IgG, human RANKL-his in flow, 1:1 fit
Experimental: (§4) Briefly, goat anti-human IgG (GE healthcare, Cat #BR100839, Human Antibody Capture Kit) was covalently linked to a CM5 chip (carboxy methyl dextran coated chip from GE healthcare #BR10030) via primary amines, using a standard amine coupling kit provided by Biacore. Un-reacted moieties on the biosensor surface were blocked with ethanolamine. […] The antigen-antibody association kinetics was followed for 2 minutes and the dissociation kinetics was followed for 10 minutes. The association and dissociation curves were fit to a 1:1 Langmuir binding model using BIAcore evaluation software.

Row | Kd [nM] | Binder
19 | 0.134 | B1
20 | 0.179 | B2

Biological target: T3, cynomolgus monkey RANKL-his protein …
Experiment: Biacore T200 SPR, antibody captured by anti-human IgG, cynomolgus RANKL-his in flow, 1:1 fit
Experimental: as §4

Row | Kd [nM] | Binder
21 | 0.42 | B1
22 | 0.414 | B2

biological target: T4, biotin-labeled human RANKL-Fc protein …; experiment: competitive ELISA: antibody blocks biotin-labeled human RANKL-Fc binding to coated human RANK-Fc

Row | IC50 [nM] | Binder
23 | 0.905 | B3
24 | 3.17 | B4
25 | 0.0505 | B5

biological target: T4, biotin-labeled human RANKL-Fc protein …; experiment: as above; remark: another data set of the same source
Experimental: Briefly, human RANK-Fc proteins (prepared in house, SEQ ID NO.: 41) were coated on 96-well micro plates at 2.0 μg/mL in PBS, 100 μl/well, and incubated overnight at 4° C. The next day, plates were washed with wash buffer (PBS+0.05% w/v Tween-20, PBST), and blocked with 5% w/v non-fatty milk in PBST, 200 μl/well, for 2 hours at 37° C.
Plates were washed 4 times using wash buffer, and added and incubated with 100 μl/well of streptavidin conjugated HRP (1:10000 dilution in PBST buffer, Jackson ImmunoResearch Laboratories, Inc., Cat #016-030-084) for 40 minutes at 37° C. Plates were washed again using wash buffer. Finally, TMB was added and the reaction was stopped using 1M H₂SO₄, and the absorbance of each well was read on a microplate reader using dual wavelengths mode with 450 nm for TMB and 630 nm as the reference wavelength. The OD (450-630) values were plotted against antibody concentration. Data were analyzed using Graphpad Prism software and IC₅₀ values were reported.

Row | IC50 [nM] | Binder
26 | 0.154 | B1
27 | 0.139 | B2

biological target: T4, biotin-labeled human RANKL-Fc protein …; experiment: competitive ELISA: antibody blocks biotin-labeled human RANKL-Fc binding to coated benchmark denosumab

Row | IC50 [nM] | Binder
28 | 4.4 | B3
29 | 16.8 | B4
30 | 0.258 | B5

biological target: T4, biotin-labeled human RANKL-Fc protein …; experiment: as above; remark: another data set of the same source

Row | IC50 [nM] | Binder
31 | 0.444 | B1
32 | 0.338 | B2
